Laboratory results: US20230030950A1 (UNIVERSITY OF QUEENSLAND, published 2023)

Biological target: T1, Aβ1-42 fibrils (UniProt P05067 672-713)
T1 construct: domain: Aβ1-42; Aggregated (fibrillar) form coated on the ELISA plate; also called fibrillar amyloid-β42; fibrillar Aβ42
Assay: direct-binding ELISA; plate coated with Aβ1-42 fibrils, serial dilutions of antibody, anti-mouse HRP detection
Description: A131-42 fibrils were generated by incubating 0.1 mM A131-42 (JPT Peptide Technologies, Germany) in 10 mM HCl for 3 d at 37° C. A MaxiSorp ELISA plate was coated with […] Aβ₁₋₄₂ fibrils in 0.1M sodium bicarbonate buffer and then blocked with 1% bovine serum albumin.

T1 sequence (P05067 672-713 limits assumed): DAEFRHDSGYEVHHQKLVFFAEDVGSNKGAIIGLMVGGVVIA

EC50: 1.18 nM
B1: 6E10 antibody (antibody, V domains shown)
VH: EVQLQQSGAELVKPGASVKLCTASGFNIKDTYIHWVKQRPEQGLEWIGRFDPVNVNTRYDSRFRGKATITSDASSNTAYLHLNSLTSEDTAVYYCSRSYYNGRRRFTYWGQGTLVTVSA
VL: DIVMTQSPSSLTVTAGEKVALTCKASQSLLSSGNQKNYLTWYQQKPGQPPKLLIYWASIRESGVPDRFTGSGSGTFFTLTISSVQAEDLAVYYCQNDYNYPFTFGSGTKLEIK
